In the supplement of paper PMC12764529:
± gives the half width of the 95% confidence interval.

Legend:
[1] = folding stability dG unfold (combined trypsin and chymotrypsin); higher = more stable
Outline: (§1)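 Designed mini-proteins with no cysteine and under 80 residues were kept only if AlphaFold2 dimer inter-PAE was above 15. In a PA-tagged cDNA display construct, they were digested with trypsin and chymotrypsin and then sequenced. K50 was inferred by Bayesian fitting of counts, and unfolding free energy was derived per protease or combined against a sequence-predicted unfolded-state K50 and a shared folded-state K50.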

[2] = folding stability dG unfold from chymotrypsin proteolysis; higher = more stable
Outline: as §1

[3] = folding stability dG unfold from trypsin proteolysis; higher = more stable
Outline: as §1

Sequence	folding stability dG unfold [1]	folding stability dG unfold [2]	folding stability dG unfold [3]
SGMTSSFEVSPVGDILVVTVSLHFPGLGLSSTASATQDPSSDSMSLDLTIPFPPEDLAPLSLSLSLKPPESA [r9_887_JUSTAS]	2.87 ± 0.23 kcal/mol	3.62 ± 0.27 kcal/mol	2.61 ± 0.12 kcal/mol
SAGGMTTFELYDPVNNKKYTLTYDPATNTLTLYNPENGEILETKPVPNLQSVEAPIVPGGIEVGVVINSAGG [r13_720_JUSTAS]	2.5 ± 0.085 kcal/mol	2.75 ± 0.062 kcal/mol	2.11 ± 0.07 kcal/mol
SAGGEVRIEVEIEVDPETGTVTVRAKIERDGKLFEVEMTLRVEPEEKPEKAPEVTVTVTVVFKPEGKSAGGS [r16_108_TrROS_Hall]	2.78 ± 0.34 kcal/mol	2.54 ± 0.076 kcal/mol	3.01 ± 0.26 kcal/mol
GMAPKTYTKEVEIKDSSGKPIKYKVTVTETALPDGSSESTITLTDPNSSKTTTINLSSPGKGLTPDDKILLS [r1_14_JUSTAS]	0.899 ± 0.075 kcal/mol	1.09 ± 0.087 kcal/mol	0.562 ± 0.019 kcal/mol
SAGGSAGGSAGGERVLVMVFKFDPEDNDMKIKDVVTFPNPEEAREEAEKDGYMVMVIPLSAGGSAGGSAGGS [r10_657_TrROS]	1.47 ± 0.2 kcal/mol	1.85 ± 0.12 kcal/mol	0.995 ± 0.048 kcal/mol
SKTIEIEIRVGGELYRIKIKVKRKGEPEEEIELTVPAGMSIEEIAARLKELYPDLKVEIVEIERLPPPEPSA [r9_364_TrROS_Hall]	3.86 ± 0.082 kcal/mol	4.17 ± 0.11 kcal/mol	2.98 ± 0.072 kcal/mol
SAGGKKVKVEKVATFELEDGSKITITTVTLPNGEKLVLIEITNPNGEKKTIVVSYEDLKEVLEALKKSAGGS [r16_588_TrROS_Hall]	2.65 ± 0.28 kcal/mol	2.7 ± 0.16 kcal/mol	2.51 ± 0.086 kcal/mol
SAGGSAGGSAGGMIIEKKTVEKLPDGTVKVTVSIITVNDDGKTETIKTETKIIPLSELLGSAGGSAGGSAGG [r7_521_JUSTAS]	2.18 ± 0.11 kcal/mol	2.25 ± 0.1 kcal/mol	2.31 ± 0.11 kcal/mol
SAGGSAGGSAGGMLKIKVYRFDKNGKLVEEEEIELPENVKEIVIKDEKTGKYYKVEIVDSAGGSAGGSAGGS [r10_970_TrROS_Hall]	1.76 ± 0.15 kcal/mol	2.02 ± 0.11 kcal/mol	1.25 ± 0.053 kcal/mol
SAGGSAGGSKPPVKTIPRWIPFPPGQTPNELVDELRKLFPPGMEVDVEYDPEPGYVRVSITFRSAGGSAGGS [r12_12_TrROS]	2.06 ± 0.097 kcal/mol	1.86 ± 0.047 kcal/mol	2.19 ± 0.042 kcal/mol
SAGGEPGALSSSTYTITAPAKSVSKTVTVSYNPADGTATITFPESGKTITVPAVSDEEVLALIKEILLSAGG [r13_439_JUSTAS]	0.322 ± 0.065 kcal/mol	-0.67 ± 0.31 kcal/mol	0.697 ± 0.025 kcal/mol
SPPIEIKPAPENYLIAKIIDPKTNKVYYILIPKDAKLDQPALVYHPDKKEYIPLKEILDLLKKGYPLSISSA [r9_250_TrMRF]	2.35 ± 0.14 kcal/mol	2.43 ± 0.059 kcal/mol	2.09 ± 0.075 kcal/mol
SMKVEKLEDGTYIIVNEDGSITEIKVYPDKVEVKTYPVLYKMPDGRWFETKEEAEKFEEETGVPILEEDLSA [r9_660_TrMRF]	0.759 ± 0.23 kcal/mol	0.887 ± 0.27 kcal/mol	0.787 ± 0.11 kcal/mol
SAGGSAGGSAMTITITGLSPEQIEEAAKALGATVTFDKETKTVTITVSPEQLEKLKELLEKSAGGSAGGSAG [r3_354_TrROS_Hall]	3.58 ± 0.18 kcal/mol	3.58 ± 0.12 kcal/mol	3.51 ± 0.14 kcal/mol
SMKKGEKIKIEKKKDGTLKITLPDGKEITVPLKDIKIEIKDGKIKITVFKDGKKIAEFELKIKKKKKKKKSA [r9_901_TrROS_Hall]	2.31 ± 0.42 kcal/mol	2.64 ± 0.11 kcal/mol	1.71 ± 0.07 kcal/mol
SPPITFFRVPAEYDEPNGKRTIKVRIWRIRDVEKDPNGGPKMDMEPQPVTFKLPVPPGAPIPPGDWIFAFSA [r9_277_TrROS]	0.831 ± 0.34 kcal/mol	0.315 ± 0.35 kcal/mol	1.57 ± 0.16 kcal/mol
SAGGSAGGSGMEKIVVEVKFPDGTVETYEFPAGVPVNIDPAVTGDVKITTLDPEGKTTEYVLKSAGGSAGGS [r12_380_JUSTAS]	-0.118 ± 0.1 kcal/mol	-0.297 ± 0.2 kcal/mol	-0.0804 ± 0.046 kcal/mol
SAGGSAGGMSIKVEVPGPYTVKIYRPDGKPIGEIEGEPGSVIEIDLNVPPGEAKNLIIEVYPTDSAGGSAGG [r6_471_TrMRF]	2.2 ± 0.24 kcal/mol	2.58 ± 0.067 kcal/mol	1.61 ± 0.074 kcal/mol
SAGGSAGGGMPMNIKVEEITSETIPPDVTVSETKVIDPSGKELKYLTVTTVRTDGKTSVLTVEGSAGGSAGG [r6_830_JUSTAS]	-0.0271 ± 0.31 kcal/mol	-0.58 ± 0.56 kcal/mol	0.201 ± 0.087 kcal/mol
PAVPKEYTVTLPNATAKVTLEEYEDFVLATAEVTFPDGAKATVTVTLEPTPDGVKRTVTLNIPPGFGAKLGS [r1_153_TrMRF]	1.65 ± 0.06 kcal/mol	1.9 ± 0.03 kcal/mol	1.17 ± 0.013 kcal/mol
SVTRDPDGKITVDVDVRRTPDGFYYVEVKLQLKDGKPIFPVPAPVKNPEDGVKRMKEFAETFAKEFLKKWSA [r9_739_TrROS]	2.04 ± 0.15 kcal/mol	2.42 ± 0.087 kcal/mol	1.35 ± 0.058 kcal/mol

Sequence	folding stability dG unfold [1]	folding stability dG unfold [2]	folding stability dG unfold [3]
SAGGSAGGSAGGSTLQSNASGIFTLYLAGSNLTVTLSKAELPKIPADFPIPSSATFTAGSAGGSAGGSAGGS [r4_91_JUSTAS]	-0.196 ± 0.41 kcal/mol	-0.41 ± 0.51 kcal/mol	0.215 ± 0.16 kcal/mol
SAGGMTVTIPYKGSPELAERVVEAIQEAFPEVRVEEVVVEPGDPTNITITVRFDNDVPASAIAEVLSSAGGS [r16_180_JUSTAS]	1.85 ± 0.071 kcal/mol	1.55 ± 0.035 kcal/mol	2.24 ± 0.041 kcal/mol
SAGGSAGGSLIPADRTYKVTVTVEGDKVILTLTDPTSSVTYTLTLDIGPEKVPAGSTLTYTGSSAGGSAGGS [r12_525_JUSTAS]	1.56 ± 0.25 kcal/mol	1.7 ± 0.19 kcal/mol	1.22 ± 0.075 kcal/mol
SAGGSAGGSAGGAVTTNKDVPLPGPFSIGTVTVSPPDPATPVVTFNSYEGNGPVTLTVPVSAGGSAGGSAGG [r11_1013_JUSTAS]	0.921 ± 0.04 kcal/mol	0.321 ± 0.11 kcal/mol	1.24 ± 0.015 kcal/mol
SAGGSAGGSAETVTITLKVKPGEKVKIVNKKTKKVFEATVKDGYLTITLPKEDITEIKIEKVSAGGSAGGSA [r18_170_TrROS_Hall]	2.29 ± 0.09 kcal/mol	2.47 ± 0.019 kcal/mol	1.77 ± 0.05 kcal/mol
SAGGSAGGSAPVPINITFPDGSVAVNGSPDVAYLYFPEKGTIYRIPIDPDTNIITIEEVFKVPSAGGSAGGS [r12_539_TrMRF]	0.964 ± 0.05 kcal/mol	1.03 ± 0.067 kcal/mol	0.744 ± 0.043 kcal/mol
SAGGSAGGSAGGSKKIKIKVPPGARVRLKNGKWFSVEDIEKLKELGIKEIEIEKLPPKKSAGGSAGGSAGGS [r4_47_TrROS_Hall]	0.999 ± 0.081 kcal/mol	1.13 ± 0.09 kcal/mol	0.669 ± 0.037 kcal/mol
MRTVLLPIAGLPPEQVREAIERAVRAAREAGQPDTTLIVFNPGPAEQVEETTRLVQELADEPDFTVTVIPIS [r1_387_TrMRF]	0.382 ± 0.14 kcal/mol	0.0961 ± 0.12 kcal/mol	0.685 ± 0.046 kcal/mol
SAGGSKLTVEEIKKLFPNVEVTKKEDGTYEMRVTVEVTLPNGEKKKVEVTVKVEVKDGKIVKVEVTSAGGSA [r2_104_TrROS_Hall]	2.9 ± 0.12 kcal/mol	3.17 ± 0.092 kcal/mol	2.44 ± 0.15 kcal/mol
SAGKPIIVKVSVINEDGEEEEIAEFPIPPDLLKGSIEVGDGFIIAPDGEGPTFTAIIGDKPVKIEIEGSAGG [r19_408_TrMRF]	1.27 ± 0.13 kcal/mol	1.52 ± 0.13 kcal/mol	0.658 ± 0.058 kcal/mol
SAGGSAPAEKVAQTLLDLGFTEVRVEEDPETDLVTVEVIDPDGTRLEIRVDPKDPRIVEIRPRSLKSAGGSA [r15_648_TrMRF]	-0.154 ± 0.16 kcal/mol	-0.0972 ± 0.15 kcal/mol	-0.351 ± 0.14 kcal/mol
SAGGSAGGSASPAPDTLYVPVVFDVVFPLPDGSYVLVPVLAYYQLPGGTLLASVRFAVTFDSAGGSAGGSAG [r3_484_TrMRF]	3.86 ± 0.2 kcal/mol	4.28 ± 0.098 kcal/mol	2.77 ± 0.16 kcal/mol
SVKTSSSMAPPDRIVLKITDPETDKVTTITVPLDLPEDEPVAVHDPEAPSERTVAEIKALAEAGKSVSGLSA [r9_250_JUSTAS]	-0.142 ± 0.18 kcal/mol	-0.55 ± 0.35 kcal/mol	-0.176 ± 0.16 kcal/mol
SAGGSAGGSGMELEKLLESVKEVKVEPTSSGEKEVTITLKPPEPSETEVKIDKETYEKLLELKSAGGSAGGS [r12_466_JUSTAS]	0.137 ± 0.12 kcal/mol	0.404 ± 0.024 kcal/mol	-0.907 ± 0.21 kcal/mol
SAGGSAMPKKVVEGPVPPEDVEARIAELLEEDPNLTYVKFTYPELGSEVVIDFENGKVTKIERLLESAGGSA [r15_166_JUSTAS]	0.108 ± 0.052 kcal/mol	0.211 ± 0.1 kcal/mol	-0.217 ± 0.1 kcal/mol
SAGGMSVKIEEKTHPETNEITINVEYDDIEKAKKEIAEKIKKENGNIPVTLVDKNGKPITIPLKELISAGGS [r8_236_JUSTAS]	0.317 ± 0.099 kcal/mol	0.368 ± 0.03 kcal/mol	0.0225 ± 0.087 kcal/mol
SAGGSAGGSAGGMKILSVEEDAPPDYVTVTELTVDSEGNKKIITTTIPIEPPPEVSPSLISAGGSAGGSAGG [r7_873_JUSTAS]	1.24 ± 0.17 kcal/mol	1.45 ± 0.1 kcal/mol	1.15 ± 0.039 kcal/mol
SAGGSAGGSSLEEIKAAAEEAVAAGHPVLTVTSGSGKVVTVEVGESPIESAGPLDGVTVTLTGSAGGSAGGS [r20_44_JUSTAS]	0.723 ± 0.073 kcal/mol	0.443 ± 0.038 kcal/mol	1.02 ± 0.056 kcal/mol
SAGGRIVINLNPENGYLMISIRMPHRRYDPEDGKGKPEPMSMSIMFPPEEIEKFAEEFGMPIEIVPWSAGGS [r8_337_TrROS]	1.56 ± 0.18 kcal/mol	1.4 ± 0.16 kcal/mol	1.42 ± 0.071 kcal/mol
SAGGSAEFKIEAEVLSKEVNPETGKPVVKVKIKIEKYNPETGKKEEKEIELELSEEELEKLLKELGSAGGSA [r2_357_TrMRF]	3.13 ± 0.13 kcal/mol	2.93 ± 0.08 kcal/mol	3.61 ± 0.23 kcal/mol
SAGGSAGGSAKPDKPIKVKVTLYNPATGEKTVVEVEVPPHVKPEEVAEALRKEFGAARVEVESAGGSAGGSA [r18_58_TrMRF]	3.08 ± 0.057 kcal/mol	3.112 ± 0.03 kcal/mol	3.05 ± 0.086 kcal/mol
